Data as given in PMC8158011 (Proceedings of the National Academy of Sciences of the …, 2021).

Molecular target: T1, FGFR4-Ecto-Fc (ectodomain of human FGFR4 fused to the Fc region of human IgG1) (human, UniProt P22455 22-369)
T1 sequence (looked up): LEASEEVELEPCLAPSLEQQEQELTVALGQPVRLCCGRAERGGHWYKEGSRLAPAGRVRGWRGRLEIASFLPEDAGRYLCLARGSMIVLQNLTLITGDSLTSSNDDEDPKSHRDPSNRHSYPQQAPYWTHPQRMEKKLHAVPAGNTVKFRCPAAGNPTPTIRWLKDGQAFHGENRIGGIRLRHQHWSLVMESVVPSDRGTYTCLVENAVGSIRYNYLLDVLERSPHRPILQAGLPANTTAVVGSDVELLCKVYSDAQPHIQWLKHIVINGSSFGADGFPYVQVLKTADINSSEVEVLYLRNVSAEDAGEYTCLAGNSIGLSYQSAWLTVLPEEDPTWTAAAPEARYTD
Test: pull-down

binding result: binds
B1: purified recombinant human FAM3B-His protein (ligand, UniProt P58499 30-235, looked up)
chain: ELIPDAPLSSAAYSIRSIGERPVLKAPVPKRQKCDHWTPCPSDTYAYRLLSGGGRSKYAKICFEDNLLMGEQLGNVARGINIAIVNYVTGNVTATRCFDMYEGDNSGPMTKFIQSAAPKSLLFMVTYDDGSTRLNNDAKNAIEALGSKEIRNMKFRSSWVFIAAKGLELPSEIQREKINHSDAKNNRYSGWPAEIQIEGCIPKERS
